Laboratory results as given in the supplement of paper PMC11246515.
± gives the standard deviation of the averaged measurements.

Test: total protein half-life in vivo (active degradation + dilution); higher = more stable protein
[1] = E. coli NCM3722 delta-clpP delta-lon delta-hslV, growth: N-lim chemostat, doubling time 6 h
[2] = E. coli NCM3722 delta-clpP, growth: N-lim chemostat, doubling time 6 h
[3] = E. coli NCM3722 delta-hslV, growth: N-lim chemostat, doubling time 6 h
[4] = E. coli NCM3722 delta-lon, growth: N-lim chemostat, doubling time 6 h
[5] = E. coli NCM3722 delta-smpB, growth: N-lim chemostat, doubling time 6 h
[6] = wild type E. coli NCM3722, growth: C-lim chemostat, doubling time 6 h
[7] = wild type E. coli NCM3722, growth: C-lim chemostat, doubling time 12 h
[8] = wild type E. coli NCM3722, growth: N-lim chemostat, doubling time 12 h
[9] = wild type E. coli NCM3722, growth: P-lim chemostat, doubling time 6 h
[10] = wild type E. coli NCM3722, growth: P-lim chemostat, doubling time 12 h
[11] = wild type E. coli NCM3722, growth: C-lim chemostat, doubling time 3 h
[12] = wild type E. coli NCM3722, growth: N-lim chemostat, doubling time 6 h

Sequence	total protein half-life in vivo [1]	total protein half-life in vivo [2]	total protein half-life in vivo [3]	total protein half-life in vivo [4]	total protein half-life in vivo [5]	total protein half-life in vivo [6]	total protein half-life in vivo [7]	total protein half-life in vivo [8]	total protein half-life in vivo [9]	total protein half-life in vivo [10]	total protein half-life in vivo [11]	total protein half-life in vivo [12]
MKPMHIAMALLSAAMFFVLAGVFMGVQLELDGTKLVVDTASDVRWQWVFIGTAVVFFFQLLRPAFQKGLKSVSGPKFILPAIDGSTVKQKLFLVALLVLAVAWPFMVSRGTVDIATLTMIYIILGLGLNVVVGLSGLLVLGYGGFYAIGAYTFALLNHYYGLGFWTCLPIAGLMAAAAGFLLGFPVLRLRGDYLAIVTLGFGEIVRILLLNNTEITGGPNGISQIPKPTLFGLEFSRTAREGGWDTFSNFFGLKYDPSDRVIFLYLVALLLVVLSLFVINRLLRMPLGRAWEALREDEIACRSLGLSPRRIKLTAFTISAAFAGFAGTLFAARQGFVSPESFTFAESAFVLAIVVLGGMGSQFAVILAAILLVVSRELMRDFNEYSMLMLGGLMVLMMIWRPQGLLPMTRPQLKLKNGAAKGEQA	5.59 ± 2.4 h	6.22 h	5.84 ± 0.34 h	5.83 ± 1.7 h	5.92 ± 1.1 h	5.79 ± 0.64 h	10.7 ± 1.2 h	12.2 h	6.09 ± 0.58 h	10.7 ± 0.3 h	–	–
MTLLNISGLSHHYAHGGFNGKHQHQAVLNNVSLTLKSGETVALLGRSGCGKSTLARLLVGLESPAQGNISWRGEPLAKLNRAQRKAFRRDIQMVFQDSISAVNPRKTVREILREPMRHLLSLKKSEQLARASEMLKAVDLDDSVLDKRPPQLSGGQLQRVCLARALAVEPKLLILDEAVSNLDLVLQAGVIRLLKKLQQQFGTACLFITHDLRLVERFCQRVMVMDNGQIVETQVVGEKLTFSSDAGRVLQNAVLPAFPVRRRTTEKV	6.58 h	–	–	–	–	–	–	–	–	–	–	–
MLNSILVILCLIAVSAFFSMSEISLAASRKIKLKLLADEGNINAQRVLNMQENPGMFFTVVQIGLNAVAILGGIVGDAAFSPAFHSLFSRYMSAELSEQLSFILSFSLVTGMFILFADLTPKRIGMIAPEAVALRIINPMRFCLYVCTPLVWFFNGLANIIFRIFKLPMVRKDDITSDDIYAVVEAGALAGVLRKQEHELIENVFELESRTVPSSMTPRENVIWFDLHEDEQSLKNKVAEHPHSKFLVCNEDIDHIIGYVDSKDLLNRVLANQSLALNSGVQIRNTLIVPDTLTLSEALESFKTAGEDFAVIMNEYALVVGIITLNDVMTTLMGDLVGQGLEEQIVARDENSWLIDGGTPIDDVMRVLDIDEFPQSGNYETIGGFMMFMLRKIPKRTDSVKFAGYKFEVVDIDNYRIDQLLVTRIDSKATALSPKLPDAKDKEESVA [P0AE45]	5.65 ± 0.36 h	6.93 ± 1.4 h	4.5 ± 0.44 h	4.11 ± 0.21 h	4.53 ± 0.24 h	5.16 ± 0.21 h	8.79 ± 0.3 h	7.63 ± 0.57 h	5.01 ± 0.053 h	9 ± 0.094 h	2.97 ± 0.18 h	4.33 ± 0.52 h
MKTLILFSTRDGQTREIASYLASELKELGIQADVANVHRIEEPQWENYDRVVIGASIRYGHYHSAFQEFVKKHATRLNSMPSAFYSVNLVARKPEKRTPQTNSYARKFLMNSQWRPDRCAVIAGALRYPRYRWYDRFMIKLIMKMSGGETDTRKEVVYTDWEQVANFAREIAHLTDKPTLK [P0ACB4]	6.5 ± 0.98 h	6.1 ± 0.4 h	6.54 ± 0.68 h	6.2 ± 0.14 h	5.74 ± 0.11 h	5.733 ± 0.054 h	9.62 ± 0.39 h	11.18 ± 0.03 h	5.69 ± 0.12 h	11.9 ± 0.72 h	3.05 ± 0.23 h	5.4517 ± 0.0046 h
MYKTIIMPVDVFEMELSDKAVRHAEFLAQDDGVIHLLHVLPGSASLSLHRFAADVRRFEEHLQHEAQERLQTMVSHFTIDPSRIKQHVRFGSVRDEVNELAEELGADVVVIGSRNPSISTHLLGSNASSVIRHANLPVLVVR	–	–	4.48 h	4.71 ± 0.33 h	4.18 ± 0.48 h	6.27 h	12 ± 1.8 h	6.48 ± 0.34 h	6.06 ± 0.33 h	10.7 h	3.06 ± 0.038 h	3.99 ± 0.43 h
MDVRQSIHSAHAKTLDTQGLRNEFLVEKVFVADEYTMVYSHIDRIIVGGIMPITKTVSVGGEVGKQLGVSYFLERRELGVINIGGAGTITVDGQCYEIGHRDALYVGKGAKEVVFASIDTGTPAKFYYNCAPAHTTYPTKKVTPDEVSPVTLGDNLTSNRRTINKYFVPDVLETCQLSMGLTELAPGNLWNTMPCHTHERRMEVYFYFNMDDDACVFHMMGQPQETRHIVMHNEQAVISPSWSIHSGVGTKAYTFIWGMVGENQVFDDMDHVAVKDLR	5.44 ± 1.1 h	3.55 h	3.6 ± 0.5 h	3.28 ± 0.7 h	3.71 ± 0.51 h	6.02 ± 0.23 h	10.2 ± 0.68 h	5.64 ± 0.57 h	5.56 h	11.6 ± 0.6 h	3.43 ± 0.61 h	4.18 h
